“Also recorded” adds a separate entry of the source. Primed or numbered codes have the meaning given here. *: point of attachment. Alexa‑350 = fluorescent label on the Cys side chain (double-labeled qf-Aβ(1-7)C); Dabcyl′ = CN(C)c1ccc(/N=N/c2ccc(C(=O)*)cc2)cc1
Legend:
NEP = assay: Screening of compounds for NEP activity of SH-SY5Y cells with qf-Aβ(1-7)C substrate; type: cell-based, human; settings: 5 μM compound, 24 hr; 2 μM qf-Aβ(1-7)C, 1 h
Method: The compound number is indicated on the left of each bar. […] (**, p value<0.001; *, p value<0.01).
Analogs comprising at least three hydroxyl groups attached to the two aromatic rings of the curcumin structure scaffold (Compound 1) were particularly active in enhancing NEP activity.
Human SH-SY5Y cells were cultured in the Dulbecco's modified Eagle's medium (DMEM, Gibco, USA) supplemented with 10% fetal bovine serum (FBS; Biological industries, USA) in 5% CO2 at 37° C. The cells were harvested and re-suspended in the phenol red-free DMEM medium supplemented with 10% FBS at a density of 1×10^6 cells/mL. 100 μL of cell culture was added in each well of a 96-well plate. The compounds (no. 1 to no. 24) were dissolved in DMSO, and the others (no. 25 and no. 26) were dissolved in sterilized water to make the stock solution (1 mM). Each compound was mixed with phenol red-free DMEM supplemented with 10% FBS to a final concentration of 10 μM. 100 μL of the medium containing 10 μM indicated compound was added into the wells to make the final compound concentration 5 μM. After incubation for 24 hr, the medium of the culture was replaced with the phenol red-free DMEM medium (not FBS) containing 2 μM qf-Aβ(1-7)C and incubation continued for additional 1 h. To measure the proteolytic activity, 100 μL of the medium was taken out for fluorescence measurement on SpectraMax Gemini EM (Molecular Devices, USA) with excitation at 346 nm and emission at 442 nm. The average of three replicate wells was used for each sample and control.

recombinant human NEP = molecular target: T1, recombinant human NEP (Homo sapiens, UniProt P08473); assay: Fluorogenic enzyme assay, peptide substrate digested by NEP; type: biochemical
T1 construct: purchased R&D Systems (USA)
T1 sequence (P08473 whole entry): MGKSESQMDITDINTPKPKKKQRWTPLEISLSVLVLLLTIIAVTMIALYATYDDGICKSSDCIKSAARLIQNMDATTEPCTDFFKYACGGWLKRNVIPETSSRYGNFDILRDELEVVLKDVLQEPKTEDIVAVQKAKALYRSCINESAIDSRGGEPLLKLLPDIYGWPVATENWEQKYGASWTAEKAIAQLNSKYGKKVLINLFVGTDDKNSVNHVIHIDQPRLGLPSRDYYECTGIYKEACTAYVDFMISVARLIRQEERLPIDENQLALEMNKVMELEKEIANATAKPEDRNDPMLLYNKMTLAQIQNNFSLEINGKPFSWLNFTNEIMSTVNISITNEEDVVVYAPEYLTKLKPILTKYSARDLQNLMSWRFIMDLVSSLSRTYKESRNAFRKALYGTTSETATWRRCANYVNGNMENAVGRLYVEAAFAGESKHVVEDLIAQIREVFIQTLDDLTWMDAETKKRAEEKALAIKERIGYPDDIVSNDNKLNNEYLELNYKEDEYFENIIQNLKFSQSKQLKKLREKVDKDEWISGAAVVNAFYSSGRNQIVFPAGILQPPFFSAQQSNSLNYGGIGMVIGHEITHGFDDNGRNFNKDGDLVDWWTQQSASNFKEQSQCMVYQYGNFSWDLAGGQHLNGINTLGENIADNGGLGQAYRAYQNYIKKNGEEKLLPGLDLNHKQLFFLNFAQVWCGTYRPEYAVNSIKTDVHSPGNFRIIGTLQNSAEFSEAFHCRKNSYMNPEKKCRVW
Method: To determine the optimal reaction conditions, 0.92 nM NEP was mixed with different concentrations of qf-Aβ(1-7)C, then, after incubation for 1, 2, 3, or 4 h at 37° C., the peptide-degrading activity of NEP was measured by recording fluorescence emission at 465 nm. The fluorescence intensity increased at least 40-fold with the degradation of the quenched fluorogenic peptide. […] Incubation for 1 h was sufficient for detection. At higher substrate concentrations, the fluorescence intensity was much larger, but the error increased. To test whether the sensitivity of NEP detection was increased when a higher substrate concentration was used, 1.84 μM qf-Aβ(1-7)C was mixed with different concentrations of NEP and reacted at 37° C. for 1, 2, 3, or 4 h and the fluorescence emission at 465 nm measured (FIG. 4). […] The substrate concentration of 1.84 μM or more was therefore used in the following studies.
To determine the optimal substrate concentration in the fluorogenic enzyme assay, NEP (0.5 mg/mL) and substrate peptide qf-Aβ(1-7)C (1 mM) were mixed in 50 mM Tris-HCl (pH 7.5), 25 mM NaCl, 5 μM ZnCl2 to a final NEP concentration of 0.92 nM and peptide concentrations of 0.46, 0.92, 1.84, 3.68, or 7.36 μM and placed on a 96-well plate (Corning, USA). The final volume of the reaction solution was kept as 200 μL. The enzyme reaction was performed in the dark at 37° C. and the fluorescence was measured at 1, 2, 3, and 4 h with excitation at 360 nm and emission at 465 nm on a Paradigm™ Detection Platform (Beckman Coulter, USA) (FIG. 3). […] The enzyme reaction was performed in the dark at 37° C. and the fluorescence was measured at 1, 2, 3, and 4 h. […]
(§1) One commercially available quenched fluorogenic peptide substrate, Dansyl-^DAGF(pNO2)G, was tested for comparison. The fluorescence of dansyl is quenched by the presence of nitrophenyl group. Digestion was monitored by the fluorescence increase of dansyl at 562 nm when excited at 342 nm. […]

[1] = molecular target: T2, insulin-degrading enzyme (IDE) (Homo sapiens, UniProt P14735); assay: Fluorogenic enzyme assay, peptide substrate digested by IDE; type: biochemical
T2 construct: purchased R&D Systems (USA)
Method: (§2) Recombinant human NEP (0.5 mg/mL), insulin-degrading enzyme (IDE) (0.386 mg/mL), endothelin-converting enzyme 1 (ECE-1) (0.298 mg/mL), matrix metalloproteinases (MMP)-3 (0.124 mg/mL) and MMP-9 (0.5 mg/mL), and angiotensin-converting enzyme (ACE) (0.434 mg/mL) were purchased from R&D Systems (USA). Human plasmin (1 mM) was purchased from Sigma (USA). […] MMP-3 and MMP-9 were pre-activated by incubation at 37° C. for 24 h with 1 mM p-aminophenylmercuric acetate. The quenched fluorogenic peptide substrate qf-Aβ(1-7)C (0.4 μL of the 1 mM stock in DMSO) was mixed with different concentrations of enzyme solution (final peptide concentration 2 μM) on a 96-well plate. The final volume of the reaction solution was kept as 200 μL. The mixture was incubated in the dark for 1, 2, 3, or 4 h at 37° C., and then the fluorescence was measured with excitation at 360 nm and emission at 465 nm on a Paradigm™ Detection Platform (Beckman Coulter, USA) (FIG. 5).
The assay system was sensitive enough to detect as low as 0.10 nM NEP. […]
as §1

[2] = molecular target: T3, angiotensin-converting enzyme (ACE) (Homo sapiens, UniProt P12821); assay: Fluorogenic enzyme assay, peptide substrate digested by ACE; type: biochemical; settings: 2 μM substrate
T3 construct: purchased R&D Systems (USA)
T3 sequence (P12821 30-1306): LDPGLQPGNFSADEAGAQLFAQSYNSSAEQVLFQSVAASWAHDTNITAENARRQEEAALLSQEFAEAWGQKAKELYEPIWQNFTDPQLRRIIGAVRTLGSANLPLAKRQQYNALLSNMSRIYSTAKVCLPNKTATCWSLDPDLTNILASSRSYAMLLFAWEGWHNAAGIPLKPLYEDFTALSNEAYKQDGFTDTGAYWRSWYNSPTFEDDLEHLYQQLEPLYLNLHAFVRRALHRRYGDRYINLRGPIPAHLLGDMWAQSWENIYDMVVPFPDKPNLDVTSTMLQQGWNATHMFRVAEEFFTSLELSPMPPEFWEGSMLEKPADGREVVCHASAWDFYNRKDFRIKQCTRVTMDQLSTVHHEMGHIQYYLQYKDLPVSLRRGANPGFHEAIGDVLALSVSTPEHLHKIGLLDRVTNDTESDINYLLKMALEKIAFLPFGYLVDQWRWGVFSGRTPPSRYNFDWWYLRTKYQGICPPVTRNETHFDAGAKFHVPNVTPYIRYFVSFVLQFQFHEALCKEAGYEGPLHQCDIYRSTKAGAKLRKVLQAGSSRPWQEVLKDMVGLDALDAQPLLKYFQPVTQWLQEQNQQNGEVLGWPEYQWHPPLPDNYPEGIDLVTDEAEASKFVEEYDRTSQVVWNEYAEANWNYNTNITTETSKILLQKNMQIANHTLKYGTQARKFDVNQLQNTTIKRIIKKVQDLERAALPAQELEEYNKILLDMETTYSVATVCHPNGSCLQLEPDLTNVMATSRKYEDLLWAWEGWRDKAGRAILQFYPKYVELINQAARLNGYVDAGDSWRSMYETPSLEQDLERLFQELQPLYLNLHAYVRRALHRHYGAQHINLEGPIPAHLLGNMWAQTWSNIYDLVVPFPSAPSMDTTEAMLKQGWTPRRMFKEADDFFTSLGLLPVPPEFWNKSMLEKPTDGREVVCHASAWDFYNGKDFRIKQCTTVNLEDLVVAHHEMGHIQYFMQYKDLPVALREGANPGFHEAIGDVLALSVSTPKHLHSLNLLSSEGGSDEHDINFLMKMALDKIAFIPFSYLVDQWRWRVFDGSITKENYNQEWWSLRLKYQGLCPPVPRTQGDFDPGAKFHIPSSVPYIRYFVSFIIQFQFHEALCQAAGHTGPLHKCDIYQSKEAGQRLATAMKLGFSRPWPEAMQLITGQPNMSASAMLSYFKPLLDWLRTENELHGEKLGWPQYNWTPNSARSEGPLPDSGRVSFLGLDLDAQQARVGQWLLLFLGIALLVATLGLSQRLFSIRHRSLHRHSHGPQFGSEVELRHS
Method: as §2
One commercially available quenched fluorogenic peptide substrate, Dansyl-^DAGF(pNO2)G, was tested for comparison. The fluorescence of dansyl is quenched by the presence of nitrophenyl group. Digestion was monitored by the fluorescence increase of dansyl at 562 nm when excited at 342 nm. […] This substrate also has enzyme specificity. It is sensitive to NEP and ACE (FIG. 8B). […]

MMP-3 = molecular target: T4, MMP-3 (Homo sapiens, UniProt P08254); assay: Fluorogenic enzyme assay, peptide substrate digested by MMP-3; type: biochemical; settings: 2 μM substrate
T4 construct: purchased R&D Systems (USA)
T4 sequence (P08254 100-477): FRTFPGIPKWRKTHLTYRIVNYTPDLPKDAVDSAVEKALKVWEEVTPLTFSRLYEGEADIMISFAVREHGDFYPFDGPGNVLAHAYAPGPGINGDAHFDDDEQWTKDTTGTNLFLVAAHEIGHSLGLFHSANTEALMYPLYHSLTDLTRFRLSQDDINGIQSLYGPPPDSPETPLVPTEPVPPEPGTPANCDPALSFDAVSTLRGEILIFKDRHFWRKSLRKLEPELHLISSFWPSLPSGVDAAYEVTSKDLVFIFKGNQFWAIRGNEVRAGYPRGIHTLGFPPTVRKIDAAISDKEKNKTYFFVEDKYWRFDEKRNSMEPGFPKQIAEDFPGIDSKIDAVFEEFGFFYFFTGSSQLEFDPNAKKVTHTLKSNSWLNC
Method: as §2

Human plasmin = molecular target: T5, Human plasmin (Homo sapiens, UniProt P00747); assay: Fluorogenic enzyme assay, peptide substrate digested by plasmin; type: biochemical; settings: 2 μM substrate
T5 construct: Human plasmin (1 mM) was purchased from Sigma (USA); purchased Sigma (USA)
T5 sequence (P00747 581-810 limits assumed): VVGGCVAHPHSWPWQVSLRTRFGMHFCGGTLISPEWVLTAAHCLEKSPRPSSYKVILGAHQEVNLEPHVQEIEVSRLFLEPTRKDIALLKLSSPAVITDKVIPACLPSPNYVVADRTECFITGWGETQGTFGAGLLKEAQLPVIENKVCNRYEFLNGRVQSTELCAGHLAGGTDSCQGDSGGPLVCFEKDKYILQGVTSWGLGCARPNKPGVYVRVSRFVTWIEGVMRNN
T5 sequence (P00747 97-580 partner limits assumed): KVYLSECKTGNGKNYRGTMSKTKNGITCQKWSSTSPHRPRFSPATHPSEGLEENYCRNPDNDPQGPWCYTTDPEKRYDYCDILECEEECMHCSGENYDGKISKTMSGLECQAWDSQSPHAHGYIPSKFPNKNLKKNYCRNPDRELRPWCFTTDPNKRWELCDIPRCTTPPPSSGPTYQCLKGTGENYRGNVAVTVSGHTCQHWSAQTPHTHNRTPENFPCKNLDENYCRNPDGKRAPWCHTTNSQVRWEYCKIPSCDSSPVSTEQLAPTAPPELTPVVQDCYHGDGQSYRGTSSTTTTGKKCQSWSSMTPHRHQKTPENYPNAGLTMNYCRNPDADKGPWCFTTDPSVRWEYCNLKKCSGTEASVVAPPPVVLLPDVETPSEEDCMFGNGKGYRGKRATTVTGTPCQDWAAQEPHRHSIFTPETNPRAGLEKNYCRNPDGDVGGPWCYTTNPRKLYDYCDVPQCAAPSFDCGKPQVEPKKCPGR
Method: as §2

[3] = molecular target: T6, endothelin-converting enzyme 1 (ECE-1) (Homo sapiens, UniProt P42892); assay: Fluorogenic enzyme assay, peptide substrate digested by ECE-1; type: biochemical; settings: 2 μM substrate, pH 7.5, 37° C.
T6 construct: purchased R&D Systems (USA)
T6 sequence (P42892 1-770): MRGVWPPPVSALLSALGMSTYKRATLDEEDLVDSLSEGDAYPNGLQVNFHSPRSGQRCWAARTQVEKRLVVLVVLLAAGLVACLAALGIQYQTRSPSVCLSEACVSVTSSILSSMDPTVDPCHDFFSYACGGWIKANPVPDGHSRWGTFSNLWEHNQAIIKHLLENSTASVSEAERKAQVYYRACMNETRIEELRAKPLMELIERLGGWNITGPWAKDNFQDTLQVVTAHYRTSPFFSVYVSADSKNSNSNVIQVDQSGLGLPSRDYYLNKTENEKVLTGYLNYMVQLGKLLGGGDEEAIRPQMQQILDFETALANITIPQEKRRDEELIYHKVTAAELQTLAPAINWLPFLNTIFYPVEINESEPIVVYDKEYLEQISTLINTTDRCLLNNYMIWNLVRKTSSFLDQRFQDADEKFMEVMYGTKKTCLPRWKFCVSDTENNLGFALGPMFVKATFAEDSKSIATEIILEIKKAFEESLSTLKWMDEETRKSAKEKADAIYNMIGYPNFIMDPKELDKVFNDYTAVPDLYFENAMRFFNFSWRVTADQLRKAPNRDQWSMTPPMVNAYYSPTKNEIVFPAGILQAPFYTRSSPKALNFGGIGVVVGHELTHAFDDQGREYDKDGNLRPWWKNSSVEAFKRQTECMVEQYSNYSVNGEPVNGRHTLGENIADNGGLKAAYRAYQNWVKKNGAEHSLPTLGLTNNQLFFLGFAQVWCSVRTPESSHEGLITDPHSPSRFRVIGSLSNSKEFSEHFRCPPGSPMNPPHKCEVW
Method: as §2

MMP-9 = molecular target: T7, MMP-9 (Homo sapiens, UniProt P14780); assay: Fluorogenic enzyme assay, peptide substrate digested by MMP-9; type: biochemical; settings: 2 μM substrate, pH 7.5, 37° C.
T7 construct: purchased R&D Systems (USA)
T7 sequence (P14780 107-707 limits assumed): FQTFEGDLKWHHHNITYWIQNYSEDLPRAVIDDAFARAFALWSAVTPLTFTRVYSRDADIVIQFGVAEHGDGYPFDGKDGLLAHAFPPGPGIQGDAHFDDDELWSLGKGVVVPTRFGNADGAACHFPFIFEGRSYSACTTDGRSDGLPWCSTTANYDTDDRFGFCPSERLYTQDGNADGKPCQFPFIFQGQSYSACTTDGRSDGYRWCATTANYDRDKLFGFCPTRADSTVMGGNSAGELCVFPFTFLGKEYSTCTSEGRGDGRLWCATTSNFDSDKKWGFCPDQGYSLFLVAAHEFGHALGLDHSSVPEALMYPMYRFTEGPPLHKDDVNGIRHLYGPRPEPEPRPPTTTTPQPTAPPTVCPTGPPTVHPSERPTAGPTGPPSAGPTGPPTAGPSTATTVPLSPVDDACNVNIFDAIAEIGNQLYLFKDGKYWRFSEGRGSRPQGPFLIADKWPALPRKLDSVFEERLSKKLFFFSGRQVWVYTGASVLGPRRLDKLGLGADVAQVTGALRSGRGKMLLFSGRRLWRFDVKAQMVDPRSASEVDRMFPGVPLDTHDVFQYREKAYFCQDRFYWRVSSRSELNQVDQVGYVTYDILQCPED
Method: as §2

Compound: COc1cc(C=CC(=O)CC(=O)C=Cc2ccc(O)c(O)c2)ccc1O [Compound 7, 1-(3,4-Dihydroxyphenyl)-7-(3-methoxy-4-hydroxyphenyl)-1,6-heptadiene-3,5-dione]
- NEP activity of human SHSY5Y cells treated with compound (effect in words) (NEP): largely enhanced NEP activity; also recorded: large enhancements of NEP activity

Compound: O=C(C=Cc1ccc(O)c(O)c1)CC(=O)C=Cc1ccc(O)c(O)c1 [Compound 8, 1,7-Bis(3,4-dihydroxyphenyl)-1,6-heptadiene-3,5-dione]
- NEP activity of human SHSY5Y cells treated with compound (effect in words) (NEP): largely enhanced NEP activity; also recorded: large enhancements of NEP activity

Compound: COc1cc(C=CC(=O)CC(=O)C=Cc2cc(O)c(O)c(OC)c2)cc(O)c1O [Compound 10, 1,7-Bis(3,4-dihydroxy-5-methoxyphenyl)-1,6-heptadiene-3,5-dione]
- NEP activity of human SHSY5Y cells treated with compound (effect in words) (NEP): largely enhanced NEP activity; also recorded: large enhancements of NEP activity

Compound: COc1ccc2ccccc2c1C=CC(=O)CC(=O)C=Cc1c(OC)ccc2ccccc12 [Compound 14, 1,7-Bis(2-methoxy-1-naphthyl)-1,6-heptadiene-3,5-dione]
- NEP activity of human SHSY5Y cells treated with compound (effect in words) (NEP): decreased NEP activity
- decrease of NEP activity (NEP): ~20%

Compound: O=C(C=Cc1ccc(O)cc1)CC(=O)C=Cc1ccc(O)c(O)c1 [Compound 20, 1-(3,4-dihydroxyphenyl)-7-(4-hydroxyphenyl)-1,6-heptadiene-3,5-dione]
- NEP activity of human SHSY5Y cells treated with compound (effect in words) (NEP): largely enhanced NEP activity; also recorded: large enhancements of NEP activity

Compound: qf-Aβ(1-7)C: Peptide DAEFRHDC, Aβ residues 1-7 plus C-terminal Cys, with Alexa-350 on the Cys side-chain and Dabcyl quencher at the N-terminus ({Dabcyl′}-DAEFRHDC(Alexa‑350)-OH)
- lowest substrate concentration at which 0.92 nM NEP could be detected (recombinant human NEP; 0.92 nM NEP, 37° C.): 0.46 µM
- fluorescence intensity increase with degradation of the quenched fluorogenic peptide (recombinant human NEP; 0.92 nM NEP, 37° C., emission at 465 nm): at least 40 fold
- cleavage of the quenched fluorogenic peptide by NEP (recombinant human NEP; 2 μM substrate, pH 7.5, 37° C.): effective
- cleavage of the quenched fluorogenic peptide by IDE ([1]; 2 μM substrate, pH 7.5, 37° C.): effective
- lowest IDE concentration detected ([1]; 37° C., 1 h): 0.2 nM
- fluorescence increase after digestion with ACE ([2]; 1-h digestion): no significant fluorescence increase
- fluorescence increase after incubation with ACE ([2]; 3 h): very weak fluorescence increase
- fluorescence increase after digestion with MMP-3 (MMP-3; 1-h digestion): no significant fluorescence increase
- fluorescence increase after incubation with MMP-3 (MMP-3; 3 h): very weak fluorescence increase
- fluorescence increase after digestion with plasmin (Human plasmin; 1-h digestion): no significant fluorescence increase
- sensitivity of the system to plasmin (Human plasmin; pH 7.5, 37° C.): much less sensitive
- sensitivity of the system to ECE-1 [3]: insensitive; also recorded: much less sensitive
- sensitivity of the system to MMP-9 (MMP-9): insensitive; also recorded: much less sensitive

— US9074238B2, “Methods for enhancing neprilysin activity and degrading amyloid-beta peptides and oligomers in a subject with Alzheimer's disease” (ACADEMIA SINICA, priority 2011, dated 2015)
